Patent US6004757
Where no end group is shown, it is not given here.

Columns and labels:
[1] = biological target: chicken pp60^v-src (chicken)

GST-c-abl, sequence (P00519 whole entry): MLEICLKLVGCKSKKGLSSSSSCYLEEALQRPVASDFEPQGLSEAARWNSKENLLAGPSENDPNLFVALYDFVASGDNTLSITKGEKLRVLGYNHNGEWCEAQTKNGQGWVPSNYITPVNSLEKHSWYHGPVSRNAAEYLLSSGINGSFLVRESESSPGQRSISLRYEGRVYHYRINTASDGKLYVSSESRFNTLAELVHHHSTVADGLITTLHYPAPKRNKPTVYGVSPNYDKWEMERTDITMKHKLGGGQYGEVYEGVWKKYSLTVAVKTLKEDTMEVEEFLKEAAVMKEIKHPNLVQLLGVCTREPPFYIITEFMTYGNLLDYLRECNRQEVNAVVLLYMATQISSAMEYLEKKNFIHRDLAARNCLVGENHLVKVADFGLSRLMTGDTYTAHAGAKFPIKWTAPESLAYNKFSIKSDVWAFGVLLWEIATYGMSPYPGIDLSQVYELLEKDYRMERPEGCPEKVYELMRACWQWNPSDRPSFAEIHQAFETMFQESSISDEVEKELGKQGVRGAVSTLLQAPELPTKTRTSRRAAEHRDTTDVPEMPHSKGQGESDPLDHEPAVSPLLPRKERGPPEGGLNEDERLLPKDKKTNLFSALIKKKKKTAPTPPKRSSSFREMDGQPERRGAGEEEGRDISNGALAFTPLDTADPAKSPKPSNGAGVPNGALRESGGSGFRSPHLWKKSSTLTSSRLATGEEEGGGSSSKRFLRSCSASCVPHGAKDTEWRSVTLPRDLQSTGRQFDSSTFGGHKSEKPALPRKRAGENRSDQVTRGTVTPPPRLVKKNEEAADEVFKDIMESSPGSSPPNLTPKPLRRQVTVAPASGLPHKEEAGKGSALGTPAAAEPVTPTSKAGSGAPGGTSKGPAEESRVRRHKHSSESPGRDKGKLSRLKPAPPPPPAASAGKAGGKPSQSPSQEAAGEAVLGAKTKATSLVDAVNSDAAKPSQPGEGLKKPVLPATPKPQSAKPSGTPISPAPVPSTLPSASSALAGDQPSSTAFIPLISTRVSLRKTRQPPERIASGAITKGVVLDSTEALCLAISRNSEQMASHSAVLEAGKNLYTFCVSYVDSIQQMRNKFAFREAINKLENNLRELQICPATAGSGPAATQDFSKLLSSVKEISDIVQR

ARRPMSPKKKA [peptide Ala-Arg-Arg-Pro-Met-Ser-Pro-Lys-Lys-Lys-Ala]
Km (µM) of phosphorylation of the peptide by the kinase (GST-cyclin B/p33^cdc2): 2.4 µM
Km (µM) of phosphorylation of the peptide by the kinase (GST-cyclinA/p33^CDK2): 15 µM

IEKIGEGTYGVVYKGRHKTT (not fully specified) [synthetic peptide based upon the site of tyrosine phosphorylation on p33^cdc2 (Y15)]
Km (µM) of phosphorylation of the peptide by the kinase [1]: 139 µM

EAIYAAPFAKKK [synthetic abl optimal peptide …]
Km of phosphorylation of the peptide by the kinase (GST-c-abl): 4 µM
